± gives the standard deviation.
Test: protein stability index of a GFP-peptide fusion (GPS, HEK-293T) (PSI 1-6); higher = more stable
[1] = treatment: DMSO, c terminus: a fixed tail appended
[2] = treatment: MLN4924 1 uM, 8 h, c terminus: a fixed tail appended
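Note: 24-mer peptide tiles fused after GFP, lentivirally expressed, FACS-sorted into six equal bins by GFP/DsRed ratio, decoded by Illumina sequencing, PSI is the read-weighted mean bin number.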

Row | Sequence | protein stability index [1] | protein stability index [2] | protein stability index (treatment: DMSO, c terminus: native) | protein stability index (treatment: MLN4924 1 uM, 8 h, c terminus: native)
1 | CSNLTPNVPNVCRMYCSDLLNPNL [SPACA3] | 2.62 ± 0.55 | 2.42 ± 0.45 | – | –
2 | CSVFPATDAPEQFISQVTVLKYFS [PLK2] | 2.49 ± 0.55 | 2.56 ± 0.5 | – | –
3 | CTQLGSLSALKHAVLGLYLLVFLI [SCARA5] | 2.16 ± 0.24 | 2.05 ± 0.23 | – | –
4 | CVKNELLPSHPLELSEKNFQLNQD [POMP] | 4.42 ± 0.1 | 4.57 ± 0.14 | – | –
5 | CVLVPRADLRLGGQPAPPQLLLGR [SMAD6] | 2.5 ± 0.5 | 2.65 ± 0.099 | – | –
6 | CVSRNSHLTSVTSESEQEFLYKTA [CD207] | 3.34 ± 0.51 | 3.81 ± 0.17 | – | –
7 | DAQLLPHHSLQAHFRPRFHPLPTV [TMEM192] | 3.22 ± 0.18 | 3.22 ± 0.16 | – | –
8 | DAVTAALLIPKEDGVITASEDRTI [WDFY1] | 4.7 ± 0.13 | 4.86 ± 0.27 | – | –
9 | DCEMNSPQVPPSQPLRPWAGGDVP [DYRK1B] | 4.32 ± 0.13 | 4.62 ± 0.15 | – | –
10 | DDHSVRVAREDVRESCPPLGLETL [CPXM2] | 4.85 ± 0.37 | 4.92 ± 0.18 | – | –
11 | DEGRLLLEFDLLIFSFGQLPLALV [SOAT2] | 3.16 ± 0.11 | 2.81 ± 0.46 | – | –
12 | DFNLCLFYLPSSPNLSLASEDEEE [SMG5] | 2.85 ± 0.21 | 3.14 ± 0.24 | – | –
13 | DGIRGKVGHARGLHAWQINWPARQ [SPSB4] | 2.8 ± 0.19 | 2.67 ± 0.31 | – | –
14 | DGKLFPSDGFRDCKKGDPKHGKRK [ELF3] | 5.1 ± 0.29 | 5.38 ± 0.26 | – | –
15 | DGLDLDWEYPGSQGSPAVDKERFT [CHIT1] | 4.94 ± 0.21 | 5.04 ± 0.19 | – | –
16 | DGSDFQHRERVAMHYQMSVTLKYE [JAGN1] | 2.62 ± 0.26 | 2.87 ± 0.24 | – | –
17 | DGTGRMPTLKKCEDVARPTQRLWD [GALNT9] | 4.01 ± 0.31 | 4.13 ± 0.19 | – | –
18 | DHMVRMHLYPADFRFDKPKKSRSP [ZNF511] | 3.42 ± 0.38 | 3.77 ± 0.43 | – | –
19 | DIAAGEELLYDYGDRSKASIEAHP [KMT5A] | 5.09 ± 0.2 | 5.28 ± 0.19 | – | –
20 | DIDVQLSSELTDSLRTLKPEGNIL [NOP53] | 4.1 ± 0.29 | 4.06 ± 0.36 | – | –
21 | DILEEEKIYAYPSNITSETGFRTI [TMEM192] | 3.04 ± 0.33 | 3.4 ± 0.25 | – | –
22 | DITQSIEDDPLLDAQLLPHHSLQA [TMEM192] | 4.15 ± 0.22 | 4.1 ± 0.37 | – | –
23 | DKAVEIEELTYIIKQDINSLNKQI [STX5] | 2.91 ± 0.14 | 3.12 ± 0.56 | – | –

Row | Sequence | protein stability index [1] | protein stability index [2] | protein stability index (treatment: DMSO, c terminus: native) | protein stability index (treatment: MLN4924 1 uM, 8 h, c terminus: native)
24 | DKNISPRENILVSLGAVGEGFHNY [SCD] | 3.23 ± 0.49 | 3.18 ± 0.24 | – | –
25 | DKVGLITLSDWAAAVESVLHLGLP [PPEF2] | 2.5 ± 0.25 | 2.31 ± 0.64 | – | –
26 | DLDRMGVMTLPSDLRKHRRKLLSP [PPFIA4] | 3.72 ± 0.25 | 3.73 ± 0.12 | – | –
27 | DLKPTGEIPKQVKVKKLKNLKTLD [DENND6A] | 4.24 ± 0.25 | 4.24 ± 0.31 | – | –
28 | DLQLTVGGAQASGTLIGVGQSVTA [MFSD9] | 3.52 ± 0.34 | 3.6 ± 0.24 | – | –
29 | DLSKIIRTSSGTSREKTACAINKV [FAM98B] | 3.06 ± 0.27 | 3.19 ± 0.6 | – | –
30 | DLVMALSAGGHGGLLNDTSAPHLE [KCNA4] | 2.8 ± 0.35 | 2.58 ± 0.26 | – | –
31 | DMAGKIKLWDLRTTKCVRQYEGHV [DCAF4] | 2.56 ± 0.18 | 2.68 ± 0.35 | – | –
32 | DNQWMTQINRLQKLIDRLEKKDLK [NECAB1] | 2.13 ± 0.43 | 3.16 ± 0.33 | – | –
33 | DPAPLWGPPPAQGSPGDGGLQDQV [EMID1] | 5.22 ± 0.27 | 5.2 ± 0.26 | – | –
34 | DPNFKMEHQNKRSPLHAAAEAGHV [EHMT1] | 4.89 ± 0.22 | 5.04 ± 0.18 | – | –
35 | DQDLRTYLDKAPPPGLPAETIKDL [CDK4] | 5.07 ± 0.28 | 4.94 ± 0.2 | – | –
36 | DRENGSDNLPSSAGSGDKPLSDPA [TPD52L2] | 5.49 ± 0.26 | 5.45 ± 0.29 | – | –
37 | DRMARPSGRSGHNTRGTGSSSSGV [CSNK1G3] | 4.87 ± 0.13 | 5.03 ± 0.098 | – | –
38 | DRVLQWERIDCQGIPPSSKDKLGV [KLHDC2] | 4.14 ± 0.36 | 3.99 ± 0.07 | – | –
39 | DSEQNGQVTCSILAYLPFKLEKSI [PCDHGA10] | 2.16 ± 0.24 | 2.27 ± 0.41 | – | –
40 | DVEFLPVYHPSPEESRDPTLYANN [LPCAT4] | 4.88 ± 0.32 | 4.64 ± 0.054 | – | –
41 | DVKARLEGEIATYRHLLEGEDCKL [KRT36] | 4.22 ± 0.21 | 4.29 ± 0.075 | – | –
42 | DVLAHQVPNAKKLRRKEQLWEKLA [NOP53] | 2.84 ± 0.36 | 3.09 ± 0.29 | – | –
43 | DVNNLDPDLRSLFSRAGISEAQLT [WAS] | 3.07 ± 0.41 | 3.34 ± 0.48 | – | –
44 | EAAEAETAKDNGEAEDQEEKEDAE [SRPK2] | 5.55 ± 0.4 | 5.73 ± 0.29 | – | –
45 | EAAQVVPDGLGLDEAREEEGDREV [TRIB3] | 5.63 ± 0.15 | 5.43 ± 0.45 | – | –
46 | EAEREFILNLKKKECKDRGFEYDG [NLN] | 4.58 ± 0.41 | 4.91 ± 0.32 | – | –

Row | Sequence | protein stability index [1] | protein stability index [2] | protein stability index (treatment: DMSO, c terminus: native) | protein stability index (treatment: MLN4924 1 uM, 8 h, c terminus: native)
47 | EAFWAEWKDLTLSTRPEEGCSLHE [TCAP] | 3.98 ± 0.18 | 4 ± 0.2 | – | –
48 | EAGFHTVEAVAYAPKKELINIKGI [RAD51] | 3.01 ± 0.054 | 3.19 ± 0.29 | – | –
49 | EAGIKVHDVRLNGSAAGHVLVKDN [TENT5C] | 4.42 ± 0.17 | 4.61 ± 0.15 | – | –
50 | EALQNFFSLACSLMGPSRMSLFSL [M1AP] | 2.89 ± 0.75 | 3.09 ± 0.74 | – | –
51 | EANEEFALRVQQLVAKELGQTGTR [AUP1] | 3.87 ± 0.35 | 3.99 ± 0.45 | – | –
52 | EAPEAELSQAPAEGPDLVPAALGS [HES6] | 5.5 ± 0.31 | 5.41 ± 0.35 | – | –
53 | EAQEEFLRVLGSMCQRLRSMQYNG [DFFB] | 2.27 ± 0.21 | 2.27 ± 0.21 | – | –
54 | EASSSPPEGSQDRNTSWGVVQEPP [TLE6] | 5.12 ± 0.28 | 5.2 ± 0.18 | – | –
55 | EDEDEDKEEEEEDCSEEYLERQLQ [TAF7L] | 5.636 ± 0.049 | 5.76 ± 0.18 | – | –
56 | EDEEEEEGGEGEKEGEGEVGGEAV [TRIM55] | 5.74 ± 0.24 | 5.7 ± 0.27 | – | –
57 | EDGHRTSTSAVPNLFVPLNTNPKE [ADD1] | 4.89 ± 0.24 | 5.07 ± 0.11 | – | –
58 | EDHFPLLFSEASECMLLVFGIDVK [MAGEA10] | 2.73 ± 0.84 | 2.7 ± 0.77 | – | –
59 | EEEDEILPRKDYESLDYDRCINDP [CLCN6] | 5.52 ± 0.17 | 5.48 ± 0.29 | – | –
60 | EEEEAEDEEVVATAGDRLTEFRKG [IRX6] | 5.48 ± 0.34 | 5.6 ± 0.28 | – | –
61 | EEEEEEEEEEDDLSELPPLEDMGQ [FKBP8] | 5.37 ± 0.3 | 5.63 ± 0.12 | – | –
62 | EEKQASLWVQGDIFRSKLKNRPSS [CDC14A] | 3.89 ± 0.049 | 4 ± 0.25 | – | –
63 | EEKSFWEMEKSFREEEKTFWKKYR [CCDC70] | 4.18 ± 0.68 | 4.232 ± 0.013 | – | –
64 | EEVDEDGSGTIDFEEFLVMMVRQM [TNNC2] | 3.52 ± 0.15 | 3.79 ± 0.44 | – | –
65 | EEVDQMFQFASIDVAGNLDYKALS [MYL5] | 4.27 ± 0.3 | 4.39 ± 0.27 | – | –
66 | EEVSSTVHIETFTTRHGEVGSALH [C10orf62] | 4.43 ± 0.36 | 4.57 ± 0.19 | – | –
67 | EGFHNYHHSFPYDYSASEYRWHIN [SCD] | 2.37 ± 0.18 | 2.48 ± 0.18 | – | –
68 | EGNLAETENRYCVQLSQIQGLIGS [KRT17] | 3.63 ± 0.15 | 3.94 ± 0.12 | – | –
69 | EGRGGRPGSTRPHRSACSSAAVRG [HAGHL] | 4.52 ± 0.17 | 4.58 ± 0.19 | – | –

Row | Sequence | protein stability index [1] | protein stability index [2] | protein stability index (treatment: DMSO, c terminus: native) | protein stability index (treatment: MLN4924 1 uM, 8 h, c terminus: native)
70 | EGYWLPGDEISIKKKNTNKQEMGT [ZMYND11] | 4.7 ± 0.17 | 4.58 ± 0.084 | – | –
71 | EIIRVILKLYEQWKNFDERKEMAT [CCNC] | 2.09 ± 0.52 | 2.38 ± 0.3 | – | –
72 | EILEQQQQERNDTNFHGVCMFCNE [ZNF277] | 3.73 ± 0.37 | 3.77 ± 0.43 | – | –
73 | EIPWTSLTRKGLVRVVFFPLFSNW [PHTF1] | 3.09 ± 0.89 | 2.84 ± 0.23 | – | –
74 | EIRDWRGPQLEGEKDWGLEGYVWR [ZSWIM9] | 3 ± 0.56 | 3.29 ± 0.57 | – | –
75 | EITEELPSSQLMPVKKQLQGASWE [ZNF396] | 4.09 ± 0.14 | 4.38 ± 0.22 | – | –
76 | EKAFIAHFQDNLHSVNRDLNELER [MED27] | 3.85 ± 0.23 | 4.09 ± 0.2 | – | –
77 | EKDERQRTTKPMAQRSAHCSRPSG [CSNK1G1] | 5.12 ± 0.11 | 4.98 ± 0.29 | – | –
78 | EKEKAEIEAKEACDWLRATGFPQY [DLC1] | 4.02 ± 0.24 | 4.09 ± 0.24 | – | –
79 | EKKLTVRQDLEDRYAEHVAATQAL [C22orf31] | 4.55 ± 0.12 | 4.53 ± 0.21 | – | –
80 | EKLATDTSTFEATSEGTLELQQRN [ZNF232] | 5.29 ± 0.22 | 5.41 ± 0.14 | – | –
81 | EKNLLLQNQVDELERKFRCQQEQL [LRRC45] | 4.27 ± 0.31 | 4.34 ± 0.23 | – | –
82 | EKVKKRPGGRPEVIYNYVQRPFIR [BTBD10] | 2.9 ± 0.31 | 2.73 ± 0.63 | – | –
83 | ELDNPMQQKWTKPARAGSEVEWTE [C2CD2L] | 4.1 ± 0.36 | 4.25 ± 0.21 | – | –
84 | ELDRWLYHLEKQTALLGGPRRCHS [PLEKHN1] | 2.24 ± 0.19 | 2.17 ± 0.39 | – | –
85 | ELERQRRLLGSVQQDLERSLQDAS [PBXIP1] | 4.62 ± 0.26 | 4.46 ± 0.28 | – | –
86 | ELLDLKAGGFSIRNQKGEQVFRLA [MYORG] | 2.32 ± 0.33 | 2.24 ± 0.48 | – | –
87 | ELLGVHPGASTEEVKRAFFSKSKE [DNAJC4] | 3.8 ± 0.19 | 4.08 ± 0.42 | – | –
88 | ELPNGSVKEAPAPTPTSLEVSSPP [PDZK1] | 5.04 ± 0.12 | 5.09 ± 0.17 | – | –
89 | ELPPSLRAPPPGGWPLQPRVQWG [ZMAT5] | – | – | 2.75 ± 0.33 | 2.82 ± 0.099
